What was measured:
[1] = target: recombinant human IL-2 (human) (UniProt P60568)
[2] = target: recombinant human IL-2 (human) (UniProt P60568); remark: listed apart in the source
[3] = target: recombinant human IL-2 (human) (UniProt P60568); remark: listed apart in the source
[4] = target: recombinant human IL-2 (human) (UniProt P60568); remark: listed apart in the source
[5] = target: recombinant human IL-2 (human) (UniProt P60568); remark: listed apart in the source
[6] = target: recombinant human IL-2 (human) (UniProt P60568); remark: listed apart in the source
[7] = target: recombinant human IL-2 (human) (UniProt P60568); remark: listed apart in the source
[8] = target: mouse IL-2 Rβγ on mouse primary NK cells (mouse) (UniProt P16297)
[9] = target: recombinant human IL-2 (human) (UniProt P60568); remark: listed apart in the source
rat IL-2 = target: T1, rat IL-2 (rat, UniProt P17108); experiment: SPR (Biacore 4000), antibody captured on anti-human IgG Fc, IL-2 30 nM to 1 nM; affinity estimate
T1 sequence: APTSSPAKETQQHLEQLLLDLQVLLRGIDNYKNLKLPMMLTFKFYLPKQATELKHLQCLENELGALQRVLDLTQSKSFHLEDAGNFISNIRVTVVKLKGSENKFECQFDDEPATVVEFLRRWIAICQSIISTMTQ
Method: Antibody affinities were measured by SPR using the Biacore 4000 with a standard capture methodology. Briefly, anti-human IgG (Fc specific) from an anti-human antibody capture kit (Biacore) was immobilized onto spots 1, 2, 4, and 5 of all four flow cells of a CM-5 sensor chip by amine coupling according to the manufacturer's instructions. Running buffer was HBS-EP+ with 1% BSA. […] Data were analyzed using the Biacore 4000 Evaluation software.
These sequences were imported into vector NTI® (Lifetech) and aligned using the alignx tool.

Work on MAB602 (antibody) yielded a fold EC50 shift of IL-2-induced proliferation, CTLL-2 (muRαβγ) [1] of 18 fold, a fold shift in EC50 of IL-2-induced phosphorylation of STAT5a,b, NK-92 cells, relative to isotype control [2] of 1000 fold and a fold EC50 shift of IL-2-induced pSTAT5a,b, Human Primary NK cells (huRβγ) [3] of 10 fold. It also gave a fold EC50 shift of IL-2-induced pSTAT5a,b, NK92 (huRαβγ) [3] of 959 fold, a fold right-shift in EC50 of IL-2-induced CD69 on Tregs, IL-2 pre-complexed with 200 nM antibody [4] of 5 to 10 fold and a fold EC50 shift of IL-2-induced pSTAT5a,b, CTLL-2 (muRαβγ) [5] of 227 fold. It also gave a fold EC50 shift of IL-2-induced pSTAT5a,b, Mouse Primary NK cells (muβγ) [5] of 3 fold, a fold right-shift in EC50 of IL-2-induced CD69 on CD56bright NK cells, IL-2 pre-complexed with 200 nM antibody [6] of 5 to 10 fold and a fold EC50 shift of IL-2-induced proliferation, BaF3/IL-2 HuRβγ [7] of 1.2 fold. The fold EC50 shift of IL-2-induced proliferation, NK92 (huRαβγ) [7] was 15 fold.

“IL-2/MAB602 complex (from UniProt P60568)” gave an EC50 of IL-2-induced phosphorylation of STAT5a,b, mouse primary NK cells, IL-2 pre-complexed with 100 nM antibody [8] of 0.361 nM.

isotype control (anti-KLH) (antibody) was tested, and the EC50 of IL-2-induced phosphorylation of STAT5a,b, NK-92 cells, with isotype control [2] was 0.0009 nM and the EC50 of IL-2-induced phosphorylation of STAT5a,b, mouse primary NK cells, with isotype control [9] was 0.116 nM.

B1: XPA.92.099 (antibody, V domains shown)
VH: QVQLVESGGGLVKPGRSLRLSCAASGFTFNRYAMSWVRQAPGKGLEWVAMISFDGGNQYYTDSVSGRFTISRDNSKTTLFLQMDSLRTEDTAVYYCVRSPAGDWVAYFDYWGQGTLVTVSS
VL: DIQMTQSPSSLSASIGDRVTIPCQASEDISNHLSWYQQKPGKAPKPLIFDASDLETGVPSRFSGSGSGTDFALTISSLRPDDFATYYCHQYHDYPSYTFGHGTKLEIKR
Molecule B1 has a fold EC50 shift of IL-2-induced proliferation, CTLL-2 (muRαβγ) [1] of 54 fold, a fold EC50 shift of IL-2-induced pSTAT5a,b, Human Primary NK cells (huRβγ) [3] of 24 fold and a fold EC50 shift of IL-2-induced pSTAT5a,b, NK92 (huRαβγ) [3] of 495 fold. The fold EC50 shift of IL-2-induced pSTAT5a,b, CTLL-2 (muRαβγ) [5] was 293 fold, the fold EC50 shift of IL-2-induced pSTAT5a,b, Mouse Primary NK cells (muβγ) [5] was 17 fold and the fold EC50 shift of IL-2-induced proliferation, BaF3/IL-2 HuRβγ [7] was 2.4 fold. For the same molecule, the fold EC50 shift of IL-2-induced proliferation, NK92 (huRαβγ) [7] was 22 fold.

B2: XPA.92.042 (antibody, V domains shown)
VH: EVQLVQSGTEVKKAGDSLKISCKGSGYNFDTYWIGWVRQMPGRGLEWMGTIYPADSDTRYSPSFQGQVTMSADKSISTAYLQWGSLRASDTAMYYCARFSSSAYDIWGQGTMVTVSS
VL: SYELTQPPSVSVSPGQTARITCSGDALPRKFAYWYQQKSGQAPVLVIYQDTKRPSGIPERFSGSSSGTTVTLTISDVQAEDDADYYCQSADRSDSYVFGAGTKLTVLG
In the case of B2, the fold EC50 shift of IL-2-induced proliferation, CTLL-2 (muRαβγ) [1] is reported as 156 fold, the fold EC50 shift of IL-2-induced pSTAT5a,b, Human Primary NK cells (huRβγ) [3] is reported as 41 fold and the fold EC50 shift of IL-2-induced pSTAT5a,b, NK92 (huRαβγ) [3] is reported as 1860 fold. The fold EC50 shift of IL-2-induced pSTAT5a,b, CTLL-2 (muRαβγ) [5] was 793 fold, the fold EC50 shift of IL-2-induced pSTAT5a,b, Mouse Primary NK cells (muβγ) [5] was 14 fold and the fold EC50 shift of IL-2-induced proliferation, BaF3/IL-2 HuRβγ [7] was 5 fold. It also gave a fold EC50 shift of IL-2-induced proliferation, NK92 (huRαβγ) [7] of 52 fold.

B3: XPA.92.019 (antibody, V domains shown)
VH: EVQLVESGGGLVQPGRSLRLSCAASGFTFSYYGMHWVRQAPGKGLEWVADISNDGSNKYYADSVKGRFTISRDNSKTTLYLQMNSLRPEDTAVYYCATPYYDSSGLDYWGQGTLVTVSS
VL: SYELTQPPSVSVSPGQTARITCSGDALPKRFAYWYQQKAGQAPVLVIYEDNKRPSGIPETLSGSSSGTTATLTISGAQEEDEADYYCYSTDNTGGLWVFGGGTKLTVLG
B3 gave a fold EC50 shift of IL-2-induced proliferation, CTLL-2 (muRαβγ) [1] of 130 fold, a fold EC50 shift of IL-2-induced pSTAT5a,b, Human Primary NK cells (huRβγ) [3] of 40 fold and a fold EC50 shift of IL-2-induced pSTAT5a,b, NK92 (huRαβγ) [3] of 966 fold. It also gave a fold shift in EC50 of IL-2-induced CD69 on Tregs, IL-2 pre-complexed with 200 nM antibody [4] of 10 to 15 fold, a fold EC50 shift of IL-2-induced pSTAT5a,b, CTLL-2 (muRαβγ) [5] of 523 fold and a fold EC50 shift of IL-2-induced pSTAT5a,b, Mouse Primary NK cells (muβγ) [5] of 15 fold. It also gave a Kd (rat IL-2) greater than 1000 nM, a fold EC50 shift of IL-2-induced proliferation, BaF3/IL-2 HuRβγ [7] of 5.2 fold and a fold EC50 shift of IL-2-induced proliferation, NK92 (huRαβγ) [7] of 33 fold.
